“Also recorded” adds a separate entry of the source.

Data set [1] concerns the target T1, C. albicans HSP90-mNeonGreen–Sba1-mScarlet-I binding (Candida albicans, UniProt P46598, E36A).
T1 construct: made in house; host or cells: E. coli BL21(DE3)
The following applies: 20 µM added; 1 µM HSP90-mNeonGreen, 2 µM Sba1-mScarlet-I, 5 mM ATP. The procedure: In this investigation, 1 µM HSP90-mNeonGreen was incubated with 2 µM Sba1-mScarlet-I in reaction buffer containing 5 mM ATP either alone (UC) or with the addition of 20 µM Sba1. As a negative control, samples containing 20 µM bovine serum albumin (BSA) were used.
FRET experiments were carried out in 384-well microtiter plates (Art. No. 3766 Corning, NY, USA, or Art. No. 781906, Greiner Bio-One GmbH, Frickenhausen, Germany) containing a final volume of 20 µL and measured with a microplate reader Infinite M200Pro (Tecan, Männedorf, Switzerland). The fluorescence was measured in three channels: excitation (ex.): 488 nm/emission (em.): 525 nm (mNeonGreen fluorescence), ex.: 561 nm/em.: 610 nm (mScarlet-I fluorescence) and the FRET channel ex.: 488 nm/em.: 610 nm. The excitation and emission bandwidths were set to 9 and 20 nm, respectively. Experiments for the determination of the equilibrium dissociation constants were performed with a filter-based microplate reader Infinite F200Pro (Tecan, Männedorf, Switzerland). The fluorescence was measured in three channels using the following filters: ex.: 485 ± 20 nm/em.: 535 ± 20 nm (mNeonGreen channel), ex.: 535 ± 20 nm/em.: 612 ± 10 nm (mScarlet-I channel) and the FRET channel ex.: 485 ± 20 nm/em.: 612 ± 10 nm. […]

Data set [2] has as its target T2, C. albicans HSP90–Sba1 binding (Candida albicans, UniProt P46598).
T2 construct: made in house; host or cells: E. coli BL21(DE3)
The data set can be described thus: FRET inhibitor screening assay, C. albicans HSP90-Sba1 binding. The conditions noted are these: 10 or 100 µM (Sba1 20 µM), triplicates, 3 mM ATP, 1% DMSO, 15 min 30 °C. The text has this:
We used the Z′ factor (Z′) to optimize the FRET assays for screening purposes. Z′ represents a simple statistical parameter for the quality assessment and optimization of HTS assays and screening assays in general. It is a measure that determines the degree of signal separation between binding and non-binding data sets. Calculation of the Z′ factor is based on the standard deviation of the individual data sets as well as their general signal separation. Values ≥ 0.5 can be classified as excellent for screening purposes. […] Consequently, the fluorescence intensity of the donor decreases (FLDD). […] To obtain an informative Z′ value, we calculated it based on at least three independent experiments amounting to 144 samples for both binding and non-binding control data sets (Figure 4B,E). […] We defined the ‘hit threshold’ as a decrease in readout signal of more than 3 standard deviations (SDs) from the mean signal of the binding control. […]
FRET experiments were carried out in 384-well microtiter plates (Art. No. 3766 Corning, NY, USA, or Art. No. 781906, Greiner Bio-One GmbH, Frickenhausen, Germany) containing a final volume of 20 µL and measured with a microplate reader Infinite M200Pro (Tecan, Männedorf, Switzerland). […] Experiments for the determination of the equilibrium dissociation constants were performed with a filter-based microplate reader Infinite F200Pro (Tecan, Männedorf, Switzerland). […]

The subject of another data set is S. cerevisiae HSP90. The following applies: cited from earlier work.
Another data set addresses T3, C. albicans HSP90 (Candida albicans, UniProt P46598).
T3 construct: made in house; host or cells: E. coli BL21(DE3)
The data set can be described thus: ADP-Glo assay, HSP90 ATPase activity. In kind it is biochemical. The conditions noted are these: HSP90 2.5 µM, 1 mM ATP, 1 h 30 °C; Aha1 alone: up to, at 8-fold molar excess; co-incubation: 20 µM each. (ADP-Glo first removes unused ATP, then detects ADP through luciferase.)

T2 sequence (P46598 whole entry): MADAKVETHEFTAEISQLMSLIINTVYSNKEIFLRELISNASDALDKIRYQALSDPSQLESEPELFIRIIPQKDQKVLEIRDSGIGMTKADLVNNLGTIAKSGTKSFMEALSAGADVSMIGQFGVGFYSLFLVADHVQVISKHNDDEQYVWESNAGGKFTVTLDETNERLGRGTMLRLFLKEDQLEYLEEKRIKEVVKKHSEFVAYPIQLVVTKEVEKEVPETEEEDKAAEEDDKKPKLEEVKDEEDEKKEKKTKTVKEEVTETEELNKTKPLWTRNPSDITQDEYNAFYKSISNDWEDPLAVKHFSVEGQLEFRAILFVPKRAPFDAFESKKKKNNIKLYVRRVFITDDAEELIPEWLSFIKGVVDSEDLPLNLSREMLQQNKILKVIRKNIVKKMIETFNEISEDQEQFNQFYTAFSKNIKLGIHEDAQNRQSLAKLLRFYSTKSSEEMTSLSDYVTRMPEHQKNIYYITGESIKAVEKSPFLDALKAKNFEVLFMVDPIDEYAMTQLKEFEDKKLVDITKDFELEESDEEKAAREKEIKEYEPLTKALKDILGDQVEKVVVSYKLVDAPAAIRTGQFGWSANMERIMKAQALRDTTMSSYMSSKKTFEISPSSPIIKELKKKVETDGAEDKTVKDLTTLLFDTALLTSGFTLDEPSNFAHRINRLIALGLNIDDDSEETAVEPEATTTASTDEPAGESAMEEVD
T1 sequence (P46598 whole entry, stated change not applied): as the sequence (P46598 whole entry) above
T3 sequence (P46598 whole entry): as the sequence (P46598 whole entry) above

B1: Sba1: unlabeled C. albicans HSP90 co-chaperone Sba1 (UniProtKB A0A1D8PQ94), His6-tagged; yeast Sba1 in cited values (protein)
chain: MSSTTTQTPTVLWAQRSSEDDAAKNIIYLTIQISDPIDLKIDLKSDHLIIDSKSNDSVYSSIDYHLQIDFFKEIDPDQSKINTENGSHIFMILRKKDQQEEYWPRLTKEKLKYHYIKTDFDKWVDEDEQDEVKDDPNDFGGPGGPGGAMDFSQMLSGMGGLGGAGGSGGPGGVDLSALASQLGQAGGAGGAAGLDGEEGEEGEAEAKEAQEESNTTATEKE
modifications: left off: His6, N-terminal, state not stated
notes: unlabeled C. albicans HSP90 co-chaperone Sba1 (UniProtKB A0A1D8PQ94), His6-tagged; yeast Sba1 in cited values
In the case of B1, in data set [1], the “effect on FRET emission (EmFRET) versus untreated control” value is on record as “significant reduction in FRET emission”. Moreover, the “hit identification (EmFRET/FLDD decrease of more than 3 SDs from binding control mean)” value in data set [2] is given as “identified as disrupting; also recorded: identified as hits”. The “ATPase activity, % of initial value in the absence of Sba1” value in the data set with S. cerevisiae HSP90 (decrease to up) is 50%.

B2: Aha1: C. albicans co-chaperone Aha1, activator of HSP90 ATPase (A0A1D8PU72); yeast Aha1 in cited values (protein)
chain: MVVNNPNNWHWVDKNCLPWSVDYFKDKLINLKVTDGTNNVHISEVSSVEGDVDVSQRKGKVISLFDIKIVLTFKGNTAKDDNVSGSITIPELTYDSEVDGLQFDISIYNETAENSGITDLIKKQLIPQLRTALMKFGPDLIEINSKDIQLSQDKVTSTYTKANQSSTIAATADHPKSESKPVEKKTETHSTSNIARKVVSEKDSSTVPKYNTTTLHLEPSFNTSAEQIYLTLLDEARIGAWTRSAPVIEKFPPKEGSEFKFFGGSVSGKFLKLVPNEQIVELWRLDDWKAGHFAQLDMKLVQSSGETKLVVKFSGIPIGEEERVKNNFEERYIRSIKITFGFGAVL
modifications: left off: His6, N-terminal, state not stated
notes: yeast Aha1 in cited values
In the case of B2, the “stimulation in ATPase activity” value in the data set with S. cerevisiae HSP90 (up to, 5–10-fold molar excess Aha1/HSP90, ref 32 (Wolmarans et al.)) is given as ~ 20 fold. The “increase in HSP90 ATPase activity” value with C. albicans HSP90 is 7 fold.

Values taken from PMC11053944, “FRET Assays for the Identification of C. albicans HSP90-Sba1 and Human HSP90α-p23 Binding Inhibitors” (Pharmaceuticals, 2024).
